From publication PMC5340530, “YOD1/TRAF6 association balances p62-dependent IL-1 signaling to NF-κB” (eLife, 2017)

Target: T1, recombinant GST-YOD1 (UniProt Q5VVQ6 1-348)
T1 construct: YOD1 (OTUD2, DUBA8); A GST-YOD1 truncation product is seen in the blots (asterisk)
Experiment: pull-down; GST-YOD1 (or GST) on Glutathione Sepharose 4B; candidate protein incubated 2 hr at 4°C in assay buffer with 0,5% Triton X100; Western blot or Coomassie
Settings: both partners purified

B1: HIS-TRAF6 MATH (346-504) (domain or fragment, UniProt Q9Y4K3 346-504, looked up)
chain: AQQCNGIYIWKIGNFGMHLKCQEEEKPVVIHSPGFYTGKPGYKLCMRLHLQLPTAQRCANYISLFVHTMQGEYDSHLPWPFQGTIRLTILDQSEAPVRQNHEEIMDAKPELLAFQRPTIPRNPKGFGYVTFMHLEALRQRTFIKDDTLLVRCEVSTRFD
notes: also called C-terminal HIS-TRAF6 MATH; TRAF6 MATH domain
B1: binds.

B2: HIS-TRAF6 CC-MATH (310-522) (domain or fragment, UniProt Q9Y4K3 310-522, looked up)
chain: DHQIRELTAKMETQSMYVSELKRTIRTLEDKVAEIEAQQCNGIYIWKIGNFGMHLKCQEEEKPVVIHSPGFYTGKPGYKLCMRLHLQLPTAQRCANYISLFVHTMQGEYDSHLPWPFQGTIRLTILDQSEAPVRQNHEEIMDAKPELLAFQRPTIPRNPKGFGYVTFMHLEALRQRTFIKDDTLLVRCEVSTRFDMGSLRREGFQPRSTDAGV
notes: TRAF6, coiled-coil and MATH domains, residues 310-522; also called HIS-TRAF6 310–522; TRAF6 C-terminus
B2: binds.
